Assay results as given in patent US20230074436A1 (DENALI THERAPEUTICS, published 2023).
No end group written: not given here. *: point of attachment. Biotin = O=C1N[C@H]2[C@H](CS[C@H]2CCCCC(=O)*)N1

Experiments:
[1] = biological target: T1, asyn_113-127_123A (human); test: Ala-scan peptide ELISA, row G, run 1
T1 construct: substitution is already in the entry; also called pep12
T1 peptide: Biotin-LEDMPVDPDNAAYEM
Method: (§1) 96-well Nunc plates were coated with 50 μL per well of 1 μg/mL streptavidin (from Jackson Immuno Research Laboratory) in PBS at 4° C. overnight. The plates were washed three times with PBST, and blocked with PBS containing 3% BSA at room temperature for 1 hour. The N-terminal biotinylated peptides were dissolved in Milli Q water to a concentration of 2 mg/mL, then further diluted to a concentration of 2 μg/mL with PBS. 50 μl of the diluted peptide was applied to the streptavidin-coated plates and incubated at 4° C. overnight. 2 μg/mL of biotinylated human alpha-synuclein was used as the positive control. The plates were washed three times with PBST before use. Purified antibody was diluted by serial dilution methods, from 20 μg/mL to 1 ng/mL, and 50 μL of the antibody solution was added to the peptide-coated wells. The plates were incubated for 1 hour at room temperature, then washed three times with PBST. Secondary detection antibody (goat anti-rat HRP (obtained from Southern Biotech)) was added with 1:5,000 dilutions and incubated for 1 hour at room temperature, then washed three times with PBST. Plates were developed with 50 μL/well of TMB substrate (Thermo Fisher) and quenched with 50 μL/well of 1 N sulfuric acid. The signal was quantified on a BioTek® plate reader at A450. A parallel repeat was performed for each peptide in a separate plate.

[2] = biological target: T2, asyn_113-127_125A (human); test: Ala-scan peptide ELISA, row G, run 1
T2 construct: substitution is already in the entry; also called pep15
T2 peptide: Biotin-LEDMPVDPDNEAAEM
Method: as §1

[3] = biological target: T3, asyn_113-127_120A (human); test: Ala-scan peptide ELISA, row G, run 1
T3 construct: substitution is already in the entry; also called pep9
T3 peptide: Biotin-LEDMPVDADNEAYEM
Method: as §1

[4] = biological target: T4, asyn_113-127_126A (human); test: Ala-scan peptide ELISA, row G, run 1
T4 construct: substitution is already in the entry; also called pep16
T4 peptide: Biotin-LEDMPVDPDNEAYAM
Method: as §1

[5] = biological target: T5, asyn_113-127_117A (human); test: Ala-scan peptide ELISA, row G, run 1
T5 construct: substitution is already in the entry; also called pep6
T5 peptide: Biotin-LEDMAVDPDNEAYEM
Method: as §1

[6] = biological target: T6, asyn_113-127_124P (human); test: Ala-scan peptide ELISA, row G, run 1
T6 construct: substitution is already in the entry; also called pep14
T6 peptide: Biotin-LEDMPVDPDNEPYEM
Method: as §1

[7] = biological target: T7, asyn_113-127_124G (human); test: Ala-scan peptide ELISA, row G, run 1
T7 construct: substitution is already in the entry; also called pep13
T7 peptide: Biotin-LEDMPVDPDNEGYEM
Method: as §1

[8] = biological target: T8, asyn_113-127_122A (human); test: Ala-scan peptide ELISA, row G, run 1
T8 construct: substitution is already in the entry; also called pep11
T8 peptide: Biotin-LEDMPVDPDAEAYEM
Method: as §1

[9] = biological target: T9, biotinylated human alpha-synuclein (human, UniProt P37840 1-140); test: Ala-scan peptide ELISA, row G, run 1
Method: as §1

[10] = biological target: T10, asyn_113-127_127A (human); test: Ala-scan peptide ELISA, row B, run 2
T10 construct: substitution is already in the entry; also called pep17
T10 peptide: Biotin-LEDMPVDPDNEAYEA
Method: as §1

[11] = biological target: T11, asyn_113-127_115A (human); test: Ala-scan peptide ELISA, row B, run 2
T11 construct: substitution is already in the entry; also called pep4
T11 peptide: Biotin-LEAMPVDPDNEAYEM
Method: as §1

[12] = biological target: T12, asyn_113-127_118A (human); test: Ala-scan peptide ELISA, row B, run 2
T12 construct: substitution is already in the entry; also called pep7
T12 peptide: Biotin-LEDMPADPDNEAYEM
Method: as §1

[13] = biological target: T1, asyn_113-127_123A; test: Ala-scan peptide ELISA, row B, run 2
Method: as §1

[14] = biological target: T13, asyn_113-127_116A (human); test: Ala-scan peptide ELISA, row B, run 2
T13 construct: substitution is already in the entry; also called pep5
T13 peptide: Biotin-LEDAPVDPDNEAYEM
Method: as §1

[15] = biological target: T2, asyn_113-127_125A; test: Ala-scan peptide ELISA, row B, run 2
Method: as §1

[16] = biological target: T14, asyn_113-127_114A (human); test: Ala-scan peptide ELISA, row B, run 2
T14 construct: substitution is already in the entry; also called pep3
T14 peptide: Biotin-LADMPVDPDNEAYEM
Method: as §1

[17] = biological target: T15, asyn_113-127_113A (human); test: Ala-scan peptide ELISA, row B, run 2
T15 construct: substitution is already in the entry; also called pep2
T15 peptide: Biotin-AEDMPVDPDNEAYEM
Method: as §1

[18] = biological target: T3, asyn_113-127_120A; test: Ala-scan peptide ELISA, row B, run 2
Method: as §1

[19] = biological target: T4, asyn_113-127_126A; test: Ala-scan peptide ELISA, row B, run 2
Method: as §1

[20] = biological target: T16, asyn_113-127_121A (human); test: Ala-scan peptide ELISA, row B, run 2
T16 construct: substitution is already in the entry; also called pep10
T16 peptide: Biotin-LEDMPVDPANEAYEM
Method: as §1

[21] = biological target: T17, asyn_113-127 (human); test: Ala-scan peptide ELISA, row B, run 2
T17 construct: also called pep1
T17 peptide: Biotin-LEDMPVDPDNEAYEM
Method: as §1

[22] = biological target: T5, asyn_113-127_117A; test: Ala-scan peptide ELISA, row B, run 2
Method: as §1

[23] = biological target: T6, asyn_113-127_124P; test: Ala-scan peptide ELISA, row B, run 2
Method: as §1

[24] = biological target: T7, asyn_113-127_124G; test: Ala-scan peptide ELISA, row B, run 2
Method: as §1

[25] = biological target: T18, asyn_113-127_119A (human); test: Ala-scan peptide ELISA, row B, run 2
T18 construct: substitution is already in the entry; also called pep8
T18 peptide: Biotin-LEDMPVAPDNEAYEM
Method: as §1

[26] = biological target: T8, asyn_113-127_122A; test: Ala-scan peptide ELISA, row B, run 2
Method: as §1

[27] = biological target: T9, biotinylated human alpha-synuclein; test: Ala-scan peptide ELISA, row B, run 2
Method: as §1

[28] = biological target: T10, asyn_113-127_127A; test: Ala-scan peptide ELISA, row C, run 1; note: test concentration or dose not given here
[29] = biological target: T13, asyn_113-127_116A; test: Ala-scan peptide ELISA, row C, run 1; note: test concentration or dose not given here
[30] = biological target: T14, asyn_113-127_114A; test: Ala-scan peptide ELISA, row C, run 1; note: test concentration or dose not given here
[31] = biological target: T15, asyn_113-127_113A; test: Ala-scan peptide ELISA, row C, run 1; note: test concentration or dose not given here
[32] = biological target: T3, asyn_113-127_120A; test: Ala-scan peptide ELISA, row C, run 1; note: test concentration or dose not given here
[33] = biological target: T4, asyn_113-127_126A; test: Ala-scan peptide ELISA, row C, run 1; note: test concentration or dose not given here
[34] = biological target: T17, asyn_113-127; test: Ala-scan peptide ELISA, row C, run 1
Method: as §1

[35] = biological target: T8, asyn_113-127_122A; test: Ala-scan peptide ELISA, row C, run 1
Method: as §1

[36] = biological target: T9, biotinylated human alpha-synuclein; test: Ala-scan peptide ELISA, row C, run 1
Method: as §1

B1: 20H4 (antibody, rat IgG2b, V domains shown)
VH: AVQLVESGGGLVQPKESLKISCAASGFTFSNAAMYWVRQAPGKGLELLARIRTKPNNYATYHADSVKGRFTISRDDSQSMVYLHMGNLKTEDTAMYYCTADMATGDYWGPGVMVTVSS
VL: DIQMTQSPPVLSVSVGDRVTLSCKASQNINKNLDWYQQKHGEAPKPLIYSTNNLQTGVPSRFSGSGSGTDYTLTISSLQPEDVATYYCYQYKSAWTFGGGTKLELR
notes: also called clone 20H4; rat 20H4
**Q.** With B1 as the binder, how does the A450 [1] read?
**A.** 0.093 OD

**Q.** What about the A450 [2] of the same binder?
**A.** 0.046 OD

**Q.** And the A450 [3]?
**A.** 0.08 OD

**Q.** What about the A450 [4] of the same binder?
**A.** 0.098 OD

**Q.** What about the A450 [5] of the same binder?
**A.** 0.102 OD

**Q.** What about the A450 [6] of the same binder?
**A.** 0.044 OD

**Q.** What about the A450 [7] of the same binder?
**A.** 0.099 OD

**Q.** What about the A450 [8] of the same binder?
**A.** 0.049 OD

**Q.** What about the A450 [9] of the same binder?
**A.** 0.141 OD

**Q.** What about the A450 [10] of the same binder?
**A.** 0.429 OD

**Q.** What about the A450 [11] of the same binder?
**A.** 0.387 OD

**Q.** What about the A450 [12] of the same binder?
**A.** 0.382 OD

**Q.** And the A450 [13]?
**A.** 0.378 OD

**Q.** What about the A450 [14] of the same binder?
**A.** 0.433 OD

**Q.** And the A450 [15]?
**A.** 0.057 OD

**Q.** And the A450 [16]?
**A.** 0.387 OD

**Q.** And the A450 [17]?
**A.** 0.407 OD

**Q.** What about the A450 [18] of the same binder?
**A.** 0.24 OD

**Q.** What about the A450 [19] of the same binder?
**A.** 0.392 OD

**Q.** And the A450 [20]?
**A.** 0.317 OD

**Q.** And the A450 [21]?
**A.** 0.394 OD

**Q.** And the A450 [22]?
**A.** 0.459 OD

**Q.** What about the A450 [23] of the same binder?
**A.** 0.058 OD

**Q.** And the A450 [24]?
**A.** 0.326 OD

**Q.** What about the A450 [25] of the same binder?
**A.** 0.056 OD

**Q.** And the A450 [26]?
**A.** 0.06 OD

**Q.** What about the A450 [27] of the same binder?
**A.** 0.931 OD

**Q.** And the A450 [28]?
**A.** 0.379 OD

**Q.** And the A450 [29]?
**A.** 0.48 OD

**Q.** And the A450 [30]?
**A.** 0.417 OD

**Q.** And the A450 [31]?
**A.** 0.498 OD

**Q.** What about the A450 [32] of the same binder?
**A.** 0.323 OD

**Q.** And the A450 [33]?
**A.** 0.371 OD

**Q.** What about the A450 [34] of the same binder?
**A.** 0.48 OD

**Q.** What about the A450 [35] of the same binder?
**A.** 0.052 OD

**Q.** And the A450 [36]?
**A.** 0.588 OD
